B1: Complement receptor type 2 (Homo sapiens), P20023 (parent)
chain: MGAAGLLGVFLALVAPGVLGISCGSPPPILNGRISYYSTPIAVGTVIRYSCSGTFRLIGEKSLLCITKDKVDGTWDKPAPKCEYFNKYSSCPEPIVPGGYKIRGSTPYRHGDSVTFACKTNFSMNGNKSVWCQANNMWGPTRLPTCVSVFPLECPALPMIHNGHHTSENVGSIAPGLSVTYSCESGYLLVGEKIINCLSSGKWSAVPPTCEEARCKSLGRFPNGKVKEPPILRVGVTANFFCDEGYRLQGPPSSRCVIAGQGVAWTKMPVCEEIFCPSPPPILNGRHIGNSLANVSYGSIVTYTCDPDPEEGVNFILIGESTLRCTVDSQKTGTWSGPAPRCELSTSAVQCPHPQILRGRMVSGQKDRYTYNDTVIFACMFGFTLKGSKQIRCNAQGTWEPSAPVCEKECQAPPNILNGQKEDRHMVRFDPGTSIKYSCNPGYVLVGEESIQCTSEGVWTPPVPQCKVAACEATGRQLLTKPQHQFVRPDVNSSCGEGYKLSGSVYQECQGTIPWFMEIRLCKEITCPPPPVIYNGAHTGSSLEDFPYGTTVTYTCNPGPERGVEFSLIGESTIRCTSNDQERGTWSGPAPLCKLSLLAVQCSHVHIANGYKISGKEAPYFYNDTVTFKCYSGFTLKGSSQIRCKADNTWDPEIPVCEKETCQHVRQSLQELPAGSRVELVNTSCQDGYQLTGHAYQMCQDAENGIWFKKIPLCKVIHCHPPPVIVNGKHTGMMAENFLYGNEVSYECDQGFYLLGEKKLQCRSDSKGHGSWSGPSPQCLRSPPVTRCPNPEVKHGYKLNKTHSAYSHNDIVYVDCNPGFIMNGSRVIRCHTDNTWVPGVPTCIKKAFIGCPPPPKTPNGNHTGGNIARFSPGMSILYSCDQGYLLVGEALLLCTHEGTWSQPAPHCKEVNCSSPADMDGIQKGLEPRKMYQYGAVVTLECEDGYMLEGSPQSQCQSDHQWNPPLAVCRSRSLAPVLCGIAAGLILLTFLIVITLYVISKHRARNYYTDTSQKEAFHLEAREVYSVDPYNPAS

Variants of: B1
Settings: with co3_human C3, P01024
Chain of co3_human C3, P01024 (P01024 whole entry): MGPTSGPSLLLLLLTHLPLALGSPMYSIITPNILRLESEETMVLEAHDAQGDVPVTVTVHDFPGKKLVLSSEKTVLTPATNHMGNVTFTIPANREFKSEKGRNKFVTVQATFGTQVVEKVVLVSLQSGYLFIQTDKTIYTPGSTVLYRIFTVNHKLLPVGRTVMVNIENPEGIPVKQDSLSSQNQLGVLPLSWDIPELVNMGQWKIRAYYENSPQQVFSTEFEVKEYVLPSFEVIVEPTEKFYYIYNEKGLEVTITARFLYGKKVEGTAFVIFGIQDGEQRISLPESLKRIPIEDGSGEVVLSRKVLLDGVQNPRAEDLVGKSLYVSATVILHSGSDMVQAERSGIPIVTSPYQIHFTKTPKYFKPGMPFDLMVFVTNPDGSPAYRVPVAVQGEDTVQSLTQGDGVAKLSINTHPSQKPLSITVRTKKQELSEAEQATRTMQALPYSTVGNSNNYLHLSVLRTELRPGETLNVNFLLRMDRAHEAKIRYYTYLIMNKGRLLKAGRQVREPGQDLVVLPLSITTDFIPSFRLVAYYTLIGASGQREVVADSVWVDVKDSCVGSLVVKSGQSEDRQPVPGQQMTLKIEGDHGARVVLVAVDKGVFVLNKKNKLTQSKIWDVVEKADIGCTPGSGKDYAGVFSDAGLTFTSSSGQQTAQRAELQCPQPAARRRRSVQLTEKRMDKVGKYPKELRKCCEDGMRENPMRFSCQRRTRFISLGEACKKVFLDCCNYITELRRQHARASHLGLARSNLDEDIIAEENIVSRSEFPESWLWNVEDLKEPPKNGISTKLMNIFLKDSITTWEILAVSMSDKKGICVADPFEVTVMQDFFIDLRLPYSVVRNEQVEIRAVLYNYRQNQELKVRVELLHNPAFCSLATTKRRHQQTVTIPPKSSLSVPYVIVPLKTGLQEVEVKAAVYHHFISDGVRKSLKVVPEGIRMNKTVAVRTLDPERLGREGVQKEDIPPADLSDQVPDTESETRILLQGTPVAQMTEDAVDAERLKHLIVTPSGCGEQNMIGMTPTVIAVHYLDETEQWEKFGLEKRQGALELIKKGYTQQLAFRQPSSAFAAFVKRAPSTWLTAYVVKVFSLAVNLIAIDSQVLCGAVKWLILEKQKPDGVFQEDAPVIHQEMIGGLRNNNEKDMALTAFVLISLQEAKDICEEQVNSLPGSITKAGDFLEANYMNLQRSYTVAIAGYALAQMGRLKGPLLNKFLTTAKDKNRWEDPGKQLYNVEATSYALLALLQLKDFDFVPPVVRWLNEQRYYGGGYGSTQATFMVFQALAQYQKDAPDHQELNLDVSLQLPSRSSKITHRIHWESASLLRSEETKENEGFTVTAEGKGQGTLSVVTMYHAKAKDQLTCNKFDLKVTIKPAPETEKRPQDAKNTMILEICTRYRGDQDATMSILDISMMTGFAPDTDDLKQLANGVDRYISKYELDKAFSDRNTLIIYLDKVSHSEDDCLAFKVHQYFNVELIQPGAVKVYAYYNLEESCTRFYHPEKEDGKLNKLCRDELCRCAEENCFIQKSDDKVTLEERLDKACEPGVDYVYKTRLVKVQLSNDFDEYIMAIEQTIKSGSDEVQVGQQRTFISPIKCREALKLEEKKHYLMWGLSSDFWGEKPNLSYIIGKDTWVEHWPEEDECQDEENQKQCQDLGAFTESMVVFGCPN

Row | effect of a mutation on the interaction | Variant
1 | decreasing interaction | D112A
2 | decreasing interaction | R103A
3 | decreasing interaction | K128A
